According to patent publication US20220380409A1 (CALIFORNIA INSTITUTE OF TECHNOLOGY, published 2022):
Square brackets hold non-standard residues; d marks the D form. Ends that are not written are not given here. Pra = C#CC[C@H](N)C(=O)O; Az4 = not defined here; PEG = not defined here

T1: LISDAELEAIFD (SEQ ID NO:34)-Az4-PEG-Biotin (Plasmodium falciparum, reading uncertain)
T1 peptide: LISDAELEAIFD-{Az4-PEG-biotin}

B1: HWSAN (SEQ ID NO:11) peptide, triazole-cyclized (peptide)
peptide: [Pra]HWSAN
modifications: triazole (positions not given here); also: biotinylated in plate assay, construct not described
notes: Variable region only; The exact biotinylated construct used on the streptavidin plate is not described; also called Hit 6
B2: PLKKG (SEQ ID NO:8), hit 4 against LDH (peptide)
peptide: [Pra]PLKKG
modifications: triazole (positions not given here); not fully specified (bridges)
notes: On-bead library member; variable region only
B3: ILYWK (SEQ ID NO:7), hit 3 against LDH (peptide)
peptide: [Pra]ILYWK
modifications: triazole (positions not given here); not fully specified (bridges)
notes: as for B2
B4: RGGIL (SEQ ID NO:5), hit 1 against LDH (peptide)
peptide: [Pra]RGGIL
modifications: triazole (positions not given here); not fully specified (bridges)
notes: as for B2
B5: KKIHL (SEQ ID NO:6), hit 2 against LDH (peptide)
peptide: [Pra]KKIHL
modifications: triazole (positions not given here); not fully specified (bridges)
notes: as for B2
B6: YLGHK (SEQ ID NO:14), hit 1 against pan pLDH (peptide)
peptide: YLGHK
modifications: triazole (positions not given here); also: Az4 (azide residue) at position 1, ring closed through triazole, places not given here
notes: Secondary ligand; It was found on bead by in situ click with alkyne-modified hevwh in the presence of pfLDH
B7: ELYKY (SEQ ID NO:19), hit 3 against pan pLDH (peptide)
peptide: ELYKY
modifications: triazole (positions not given here); also: Az4 (azide residue) at position 1, ring closed through triazole, places not given here
notes: as for B6
B8: RCM cyclized version of the HWSAN (SEQ ID NO:11) peptide (peptide)
peptide: HWSAN
modifications: staple (positions not given here); also: RCM between olefin-bearing non-natural residues, places not given here, biotinylated
notes: also called RCM cyclic peptide; one of the RCM cyclized peptides

Columns and labels:
GST-PvLDH = target: T2, GST-PvLDH (Plasmodium berghei, UniProt P84793 1-313); assay: ELISA: 5 uM biotinylated ligand on a streptavidin plate, GST-PvLDH overnight, antiGST-HRP detection (FIG. 10)
T2 construct: Printed as 'whole PvLDH' and 'GST-PvLDH'; also called whole PvLDH protein; not shown: glutathione S-transferase (GST) tag

LISDAELEAIFD (SEQ ID …) = target: T1, LISDAELEAIFD (SEQ ID …); assay: in situ click bead screen of cyclic library C against LISDAELEAIFD-Az4-PEG-Biotin; hits formed a triazole linkage to the epitope peptide
PfLDH protein [1] = target: T3, PfLDH protein (Plasmodium falciparum, UniProt Q27743 2-316); assay: in situ click bead screen of azide-modified cyclic library C with pfLDH and alkyne-modified hevwh anchor; hit found by triazole formation with the primary ligand
T3 construct: also called Plasmodium falciparum LDH protein

PfLDH protein [2] = target: T3, PfLDH protein; assay: ELISA titration of PfLDH protein on the ligand (FIG. 11)

Row | Binder | binding result (LISDAELEAIFD (SEQ ID …)) | further results
1 | B1 | binds | binding result (GST-PvLDH): binds
2 | B2 | binds | –
3 | B3 | binds | –
4 | B4 | binds | –
5 | B5 | binds | –
6 | B6 | – | binding result (PfLDH protein [1]): binds
7 | B7 | – | binding result (PfLDH protein [1]): binds
8 | B8 | – | EC50 (PfLDH protein [2]): 2.5 nM
